Test results published in patent publication US20040235749A1 (HOSPITAL SAINTE JUSTINE, published 2004).
Non-standard residues stand in square brackets, D forms with d. No end group written: not given here. dCha = N[C@H](CC1CCCCC1)C(=O)O

B1: PCP-13.21 (peptide)
peptide: [dI][dL]G[dH][dR][dD][dY][dK]-NH2
modifications: N-terminus assumed
SMILES: CC[C@@H](C)[C@@H](N)C(=O)N[C@H](CC(C)C)C(=O)NCC(=O)N[C@H](Cc1c[nH]cn1)C(=O)N[C@H](CCCNC(=N)N)C(=O)N[C@H](CC(=O)O)C(=O)N[C@H](Cc1ccc(O)cc1)C(=O)N[C@H](CCCCN)C(N)=O
B2: PCP-13.20 (peptide)
peptide: [dI][dL]G[dH][dR][dD][dY]-NH2
modifications: N-terminus assumed
SMILES: CC[C@@H](C)[C@@H](N)C(=O)N[C@H](CC(C)C)C(=O)NCC(=O)N[C@H](Cc1c[nH]cn1)C(=O)N[C@H](CCCNC(=N)N)C(=O)N[C@H](CC(=O)O)C(=O)N[C@H](Cc1ccc(O)cc1)C(N)=O

Biological target: FP receptor in porcine tissue (retinal microvessels, uterine myometrium) (pig)
Assay: cell-based or functional assay

First: [dI][dL][dA][dH][dR][dD][dY][dK] [PCP-13.7]
Second: [dI][dL]G[dH][dR][dD][dY][dK] [PCP-13]
The “% Inhibition of Maximal Response, 100 µM peptide, 10^-7 M PGF2α, porcine eyecup” value (“% Inhibition of Maximal Response” below) of the first is lower: 76.2% for the first, 80% for the second.

Going from [dY][dQ][dD][dR][dF][dY][dL][dL] [PCP-14] to [dI][dL]G[dCha][dR][dD][dY][dK] [PCP-13.24], the “% Inhibition of Maximal Response” value rises from 64% to 93.8%.

Going from WEDRFYLL [PCP-10] to [dS][dN][dV][dL][dC][dS][dI][dF] [PCP-15], the “% Inhibition of Maximal Response” value rises from 80% to 88.1%.

Compared with B1, [dI][dL]G[dH][dK][dD][dY][dK] [PCP-13.13] is higher in “% Inhibition of Maximal Response” value: 53.8% for the first, 63.1% for the second.

First: [dI][dL]A[dH][dR][dD][dY][dK] [PCP-13.8]
Second: ILGHRDYK [PCP-8]
The “% Inhibition of Maximal Response” value of the first is higher: 53.2% for the first, 50% for the second.

Going from [dI][dL]G[dW][dR][dD][dY][dK] [PCP-13.22] to [dI][dL]G[dF][dR][dD][dY][dK] [PCP-13.11], the “% Inhibition of Maximal Response” value rises from 83.4% to 87%.

First: [dI][dL]G[dH][dQ][dD][dY][dK] [PCP-13.18]
Second: B2
The “% Inhibition of Maximal Response” value of the first is higher: 70% for the first, 50.4% for the second.

Going from [dI][dL][dA][dH][dR][dD][dY][dK] [PCP-13.7] to [dI][dL]G[dH][dR][dD][dY][dK] [PCP-13], the “% Vasomotor Response (of maximum constriction), 100 µM peptide, 10^-7 M PGF2α, porcine eyecup” value (from here on “% Vasomotor Response”) falls from 23.8% to 20%.

Compared with [dY][dQ][dD][dR][dF][dY][dL][dL] [PCP-14], [dI][dL]G[dCha][dR][dD][dY][dK] [PCP-13.24] is lower in “% Vasomotor Response” value: 36% for the first, 6.2% for the second.

Going from WEDRFYLL [PCP-10] to [dS][dN][dV][dL][dC][dS][dI][dF] [PCP-15], the “% Vasomotor Response” value falls from 20% to 11.9%.

Going from B1 to [dI][dL]G[dH][dK][dD][dY][dK] [PCP-13.13], the “% Vasomotor Response” value falls from 46.2% to 36.9%.

Compared with [dI][dL]A[dH][dR][dD][dY][dK] [PCP-13.8], ILGHRDYK [PCP-8] is higher in “% Vasomotor Response” value: 46.8% for the first, 50% for the second.

Compared with [dI][dL]G[dW][dR][dD][dY][dK] [PCP-13.22], [dI][dL]G[dF][dR][dD][dY][dK] [PCP-13.11] is lower in “% Vasomotor Response” value: 16.6% for the first, 13% for the second.

Going from [dI][dL]G[dH][dQ][dD][dY][dK] [PCP-13.18] to B2, the “% Vasomotor Response” value rises from 30% to 49.6%.

Biological target: PAF receptor in porcine retinal microvessels (pig, UniProt Q9XSD4 1-342)
Sequence (Q9XSD4 whole entry): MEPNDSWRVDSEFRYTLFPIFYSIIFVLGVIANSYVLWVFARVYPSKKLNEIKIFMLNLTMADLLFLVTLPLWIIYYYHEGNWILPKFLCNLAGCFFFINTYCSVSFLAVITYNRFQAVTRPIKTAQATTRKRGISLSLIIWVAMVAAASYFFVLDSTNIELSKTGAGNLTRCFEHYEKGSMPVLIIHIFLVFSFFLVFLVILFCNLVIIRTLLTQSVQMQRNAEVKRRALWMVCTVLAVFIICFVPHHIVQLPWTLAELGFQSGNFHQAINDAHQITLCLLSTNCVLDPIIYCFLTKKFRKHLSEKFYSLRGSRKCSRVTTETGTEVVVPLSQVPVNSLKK
Assay: cell-based or functional assay

[dL][dV][dP][dV][dS]G[dK][dE][dY] [SEQ ID NO:85] was tested, and the “IC50, C-PAF induced retinal vasomotor responses, porcine eyecup” value was 134 nM.

Biological target: Urotensin receptor (GPR14) in porcine tissue (retinal microvessels, aortic strips) (pig)
Assay: cell-based or functional assay

In the case of [dV][dI][dR][dA][dT][dR][dP][dA][dL] [SEQ ID NO:79], the “IC50, U-II (1 µM) mediated contractility of retinal microvessels” value is reported as 115 nM.
